Key:
PDGFR-α = PDGFR-α expression in gastrocnemius muscle by RNAse protection analysis; type: in vivo, mouse; conditions: 4.5 μg daily, day 2 after ligation, compared to vehicle
Method: RNase protection analysis (RPA) was performed according to the manufacturer's protocol (Ambion) to investigate gene expression at mRNA level. Riboprobes were prepared using RNA polymerase (Promega) and ^32P-UTP (Amersham). Mouse β-actin cDNA (250 bp, Ambion) was used as an internal control. For Western blot assay, subconfluent cells were rinsed with cold PBS supplemented with 5 µg/ml of antiprotease cocktail, lysed in RIPA buffer and analyzed on 10% acrylamide SDS PAGE in reducing condition. […] The precipitants were analysed on SDS-PAGE, and immunoblotted using a monoclonal anti-phosphotyrosine antibody (Santa Cruz).
To further verify the angio/arteriogenic activity of PDGF-CC in vivo, the effect of PDGF-CC in an established mouse model of hind limb ischemia is investigated (Luttun et al., Nat Med, 2002 1:1). PDGFR-α expression was quantified by RNAse protection analysis in the gastrocnemius muscle, which becomes highly ischemic after ligation of the femoral artery (Deindl et al., Circ Res, 2001 89:779-86; Couffinhal et al., American Journal of Pathology, 1998 152:1667-1679). […] Revascularization of the ischemic gastrocnemius muscle, which only occurred in those regions where regenerating muscle replaced the necrotic avascular muscle, was scored after continuous delivery, by osmotic minipump, of 4.5 μg PDGF-CC per day for one week after femoral artery ligation. […]

hSMC = test: Cell migration assay, hSMC; type: cell-based, human; conditions: wounded monolayer, 20 hours
Method: Cell migration assays were performed on growth arrested confluent HMVEC, BAEC or hSMC cells. Cell monolayers were wounded with a rubber policeman and washed with serum-free medium. Dishes were then incubated for 20 hours in serum-free medium containing VEGF165, PDGF-AA, (R&D Systems, Minneapolis USA) or PDGF-CC. Each assay included two dishes per condition and was repeated three times independently. Cells were photographed at 40× magnification, and migration percentage corresponding to the ratio between area of the cells and the total area of the wound (Biocom visiol@b 2000 version 4.52, San Diego). […] After 7 days, viable cells were counted using the cell Titer-glo luminescent cell viability assay. […] Two days later, cell numbers were counted and proliferation percentage calculated, using cells cultured in medium containing 10% serum as control. […] Aortic rings were analysed at day 9 of culturing. […]
The mitogenic and chemotactic effect of PDGF-CC was then tested on SMCs and perivascular fibroblast cells, and the effect of PDGF-CC was compared to that of VEGF and PDGF-AA in both cultured cells and the aortic ring assay (Blacher et al., Angiogenesis, 2001 4:133-42). […] In the aortic ring assay, we quantified the growth and emigration of perivascular fibroblasts from the intact vessel using computer-assisted image analysis after treatment with VEGF and different PDGFs at different concentrations. […]

B1: PDGF-CC: recombinant human PDGF-CC core domain homodimer, residues 230-345 of full-length PDGF-C (SEQ ID NO:40), produced in baculovirus infected insect cells (protein)
chain: GRKSRVVDLNLLTEEVRLYSCTPRNFSVSIREELKRTDTIFWPGCLLVKRCGGNCACCLHNCNECQCVPSKVTKKYHEVLQLRPKTGVRGLHKSLTDVALEHHEECDCVCRGSTGG
modifications: homodimer; PDGF-C core domain
PDGFR-α expression in gastrocnemius muscle (PDGFR-α): almost completely restored
hSMC migration (hSMC): stimulated

From patent US20070172423A1, “Composition and method for modulating vasculogenesis for angiogenesis” (priority 1998, published 2007)
